Tested on: MS2 coat protein
Assay: apparent KD of MS2 coat protein; higher = weaker reporter binding
Conditions: Eterna round: R107; input ligand: arginine 13.2 mM
In short: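 Titration buffer: 100 mM Tris-HCl pH 7.5, 80 mM KCl, 4 mM MgCl2, without or with constant ligand. Designed RNA switches transcribed on-chip from Illumina sequencing clusters received SNAP-549-labelled MS2 coat protein in twofold steps from 0.7 or 1.5 nM to 3 µM. Apparent KD is the median per design of fits to normalised cluster binding curves.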

| Sequence | apparent KD of MS2 coat protein [nM] |
| --- | --- |
| AGGUACGGAAUCCUCAUGUAGUCGUACCAACGAGGACCGGUACGGCCGCCACUCGAAUAAACAUGAGGAUCACCCAUGUAAUAAU [T''-M-T'-T-MS2] | 17.6 |
| AAUAGACAUGAGGAUCACCCAUGUAUGGAAGGAGCGGUGAAUAAGCCAGGUAGGUCGCCAGUGUGAGGGUUAUCUAUGUAAUAAA [#19 Exclusion - Arginine A] | 27.4 |
| AACCGAGGCUAUCCUCUAAGAAAAUGUGAUACCAGAAUAAUUUUAUUCCCUUGGCAGCAUGACAUGAGGAUCACCCAUGUGUCUU [SSTheo A #6] | 73.6 |
| AGUGUUAUAACUGAUACCAGACUUGCGCUUAAACAUGAGGAUCACCCAUGUAAAAUGGUUGUCCCUUGGCAGCAGAAAAUACACA [JR_SSTheophyB_Sub006] | 53.2 |
| AUAAUAAUACAUGAGGAUCACCCAUGUAUGCGAGGACCGGUACGGCCGCCACUCGACCUCAUGCAUACAUGAGGAUCACCCAUGU [Same State Tryptophan A 4] | 18.4 |
| AUAACAUGAGGAUCACCCAUGUAGAGUGAUACCAGACUACGUAAUGUCCCUUGGCAGCACAAGUAAAGUUACGAAUAAUGAUAGA [JR_SSTheophyA_Sub002] | 113 |
| AAUAAACAUGAGGAUCACCCAUGUAGGGUGCGAGGACCGGUACGGCCGCCACUCGGGUGAAAACAUGAGGAUCACCCAUGUAAAA [Mat - Exclusion - Trytophan A - D23] | 61.1 |
| AGACAUGAGGAUCACCCAUGUAGUAUGGAUACCAGAUGUAGAUUAGUCCCUUGGCAGCUGUGGUGAAGUGAUGCAUUGCUCCUAG [Exclusion - Theophylline A (Freestyle 1)] | 19.5 |
| UAUCUAACGAAGGAUACCAGUACAUGAGAGUACAUGAGGAUCACCCAUGUUAGAUACGGGUACCCUUGGCAGCCUCACCUACACC [theeternabot_sameState_MS2_Theo_B_11] | 40.3 |
| ACUUGGUGGUGAUCCCUGCCAAGAGGUGAUACCAGCAUCGAAAGAUGCCCUUGGCAGCACCAACAUGAGGAUCACCCAUGUAAUA [(MT)''-(M)'-(T')-(Theo)-(Ms2)_Design1/22_6] | 62.6 |
| UGUAUGGACUGAAGGAGCGCCUCAAAAUAGCAUGAGGAACACCCAUGCAAGGCGAAAGCCGGGCAGGUAGGUCGCAGUCCAUACU [ArgBX 3] | 21 |
| ACAUGAAGAACAGCGGUGGGCGCGCUCGAUACCAGUACUUUGAUUUACCCUUGGCAGCGACAUGAGGAUCACCCAUGUGAGAUGA [XTheo A #1] | 16.9 |
| GGAGGCCUUAGGGAUACCAGCUAAGUUGAGUACAUGAGGAUCACCCAUGUGUUCCCAGAGAGCCCUUGGCAGCCCUCAUCCGUUC [theeternabot_sameState_MS2_Theo_B_7] | 14.5 |
| ACUAGGCUCGGAAACGAGCCUAGGACAGAAGGAGCGUGGAUUAACACAGGUAGGUCGCUGACAUGAGGAUCACCCAUGUAUUUAU [SSAA #5] | 19.9 |
| GGGCGUGUGGUGCGGCGUGUUCCGCUCCGUCGAGGACCGGUACGGCCGCCACUCGACAUGAGGAUCACCCAUGUGCGAGCGCGCG [#1 Exclusion - Tryptophan A Attempt #8 (HarryS)] | 13.2 |
| AAUGUAUGGCACAUGAGGAUCACCCAUGUGCGAGGACCGGUACGGCCGCCACUCGGUCCUGGGAUCUUACAACUAUACAUUAAUG [XTryp A #20] | 10.3 |
| AGCCACUCGAGUGAUCCUCACGAGUGGCUACGAGGACCGGUACGGCCGCCACUCGAAUCAACAUGAGGAUCACCCAUGUAAUAAU [Brourdmod02] | 20.5 |
| ACAUGAGGAUCACCCAUGUGUGUAAAUCCUCGAGGACCGGUACGGCCGCCACUCGAUUGAGUGUAAGUUGAAUGUAACAUUCAAC [whbob_SS_trypto A_2s9] | 46 |
| GGUUGGUGUAGAGAUAUAUUGAUUACUGAAGGAGCGGGAACAAACCCAGGUAGGUCGCAGAGAUCCACAUGAGGAUCACCCAUGU [!0.N] | 35.2 |
| GUAAAGUAAAGAAGGAGCGUCGAAAAUGGGUAAACAUGAGGAUCACCCAUGUAAAGGGAACGACAGGUAGGUCGCUUUAUUUUAC [AstromonsSSArgB#17] | 86.7 |
| AUAACAUGAGGAUCACCCAUGUAUUGGUUACGAGGACCGGUACGGCCGCCACUCGUAUUUUGGUGGUAUUUUGUAUAUAUGAUAA [JR_SSTryptoA_Sub018] | 26.6 |
| GGGCGAGUGGACCGGCGUGCUCCGCUCCGUCGAGGACCGGUACGGCCGCCACUCGACAUGAGGAUCACCCAUGUGCGAGCUCGCG [#1 Exclusion - Tryptophan A Attempt #14 (HarryS)] | 32.7 |
| GGCGUGGUCGGAAGGAGCGACAUGAGGAUCACCCAUGUCUCCCGUUAUGGGAGUUCCUUAGGUCAGGUAGGUCGCCGACUGCGGC [#1 Exclusion - Arginine B Attempt #22 (Inspired by Omei)] | 41.6 |
| AAACGUUGCUGCGAUACCAGACAUGAGGAUCACCCAUGUACCAAGGUAAGAAAAUAACAUGUCCCUUGGCAGCGCAGCAACGAAA [MAT - Exclusion Theophlline B - Mod of Eli - D3] | 17.5 |
| AGCAACAAGUCGGCCGCCACUCAUUUAACAUGAGGAUCACCCAUGUGAAUAACAUGAUUGUAAUAGAGGACCGGGACAGUUGCAU [JR_SSTryptoB_Sub014] | 62.1 |
| ACAUGAGGAUCACCCAUGUGGCGUCUUGAUACCAGACGAGAAGUAGUCCCUUGGCAGCAAAUACAUGAGGAUCACCCAUGUAGGA [cccmullin] | 16.6 |
| UCGUGGUCCGCAAGGACCGGGAGUUGCGAUACCAGCACGGUAACGUGCCCUUGGCAGCGCACAUGAGGAUCACCCAUGUGGUGUU [#1 Exclusion - Theophylline A Attempt #14 (HarryS)] | 40.9 |
| UCACUCCUGAUGGAUACCAGUUACUAACGCAACAUGAGGAUCACCCAUGUGAACACUCAGAACCCUUGGCAGCCAGGAGAACGAA [theeternabot_sameState_MS2_Theo_B_30] | 42.8 |

Same assay, conditions: Eterna round: R107; input ligand: none

| Sequence | apparent KD of MS2 coat protein [nM] |
| --- | --- |
| AAUAGACAUGAGGAUCACCCAUGUAUGGAAGGAGCGGUGAAUAAGCCAGGUAGGUCGCCAGUGUGAGGGUUAUCUAUGUAAUAAA [#19 Exclusion - Arginine A] | 38.4 |
| UGUAUGGACUGAAGGAGCGCCUCAAAAUAGCAUGAGGAACACCCAUGCAAGGCGAAAGCCGGGCAGGUAGGUCGCAGUCCAUACU [ArgBX 3] | 20.3 |
| ACUAGGCUCGGAAACGAGCCUAGGACAGAAGGAGCGUGGAUUAACACAGGUAGGUCGCUGACAUGAGGAUCACCCAUGUAUUUAU [SSAA #5] | 27.3 |
| GGGCGUGUGGUGCGGCGUGUUCCGCUCCGUCGAGGACCGGUACGGCCGCCACUCGACAUGAGGAUCACCCAUGUGCGAGCGCGCG [#1 Exclusion - Tryptophan A Attempt #8 (HarryS)] | 11.5 |
| AGCCACUCGAGUGAUCCUCACGAGUGGCUACGAGGACCGGUACGGCCGCCACUCGAAUCAACAUGAGGAUCACCCAUGUAAUAAU [Brourdmod02] | 202 |
| GGUUGGUGUAGAGAUAUAUUGAUUACUGAAGGAGCGGGAACAAACCCAGGUAGGUCGCAGAGAUCCACAUGAGGAUCACCCAUGU [!0.N] | 31.6 |
| GUAAAGUAAAGAAGGAGCGUCGAAAAUGGGUAAACAUGAGGAUCACCCAUGUAAAGGGAACGACAGGUAGGUCGCUUUAUUUUAC [AstromonsSSArgB#17] | 199 |
| GGGCGAGUGGACCGGCGUGCUCCGCUCCGUCGAGGACCGGUACGGCCGCCACUCGACAUGAGGAUCACCCAUGUGCGAGCUCGCG [#1 Exclusion - Tryptophan A Attempt #14 (HarryS)] | 77.5 |
| GGCGUGGUCGGAAGGAGCGACAUGAGGAUCACCCAUGUCUCCCGUUAUGGGAGUUCCUUAGGUCAGGUAGGUCGCCGACUGCGGC [#1 Exclusion - Arginine B Attempt #22 (Inspired by Omei)] | 231 |

Same assay, conditions: Eterna round: R107; input ligand: theophylline 20 uM

| Sequence | apparent KD of MS2 coat protein [nM] |
| --- | --- |
| AGGUACGGAAUCCUCAUGUAGUCGUACCAACGAGGACCGGUACGGCCGCCACUCGAAUAAACAUGAGGAUCACCCAUGUAAUAAU [T''-M-T'-T-MS2] | 97.3 |
| AAUAGACAUGAGGAUCACCCAUGUAUGGAAGGAGCGGUGAAUAAGCCAGGUAGGUCGCCAGUGUGAGGGUUAUCUAUGUAAUAAA [#19 Exclusion - Arginine A] | 41.6 |
| AACCGAGGCUAUCCUCUAAGAAAAUGUGAUACCAGAAUAAUUUUAUUCCCUUGGCAGCAUGACAUGAGGAUCACCCAUGUGUCUU [SSTheo A #6] | 131 |
| AGUGUUAUAACUGAUACCAGACUUGCGCUUAAACAUGAGGAUCACCCAUGUAAAAUGGUUGUCCCUUGGCAGCAGAAAAUACACA [JR_SSTheophyB_Sub006] | 98 |
| AUAAUAAUACAUGAGGAUCACCCAUGUAUGCGAGGACCGGUACGGCCGCCACUCGACCUCAUGCAUACAUGAGGAUCACCCAUGU [Same State Tryptophan A 4] | 55.8 |
| AUAACAUGAGGAUCACCCAUGUAGAGUGAUACCAGACUACGUAAUGUCCCUUGGCAGCACAAGUAAAGUUACGAAUAAUGAUAGA [JR_SSTheophyA_Sub002] | 146 |
| AAUAAACAUGAGGAUCACCCAUGUAGGGUGCGAGGACCGGUACGGCCGCCACUCGGGUGAAAACAUGAGGAUCACCCAUGUAAAA [Mat - Exclusion - Trytophan A - D23] | 185 |
| AGACAUGAGGAUCACCCAUGUAGUAUGGAUACCAGAUGUAGAUUAGUCCCUUGGCAGCUGUGGUGAAGUGAUGCAUUGCUCCUAG [Exclusion - Theophylline A (Freestyle 1)] | 36.4 |
| UAUCUAACGAAGGAUACCAGUACAUGAGAGUACAUGAGGAUCACCCAUGUUAGAUACGGGUACCCUUGGCAGCCUCACCUACACC [theeternabot_sameState_MS2_Theo_B_11] | 71.6 |
| ACUUGGUGGUGAUCCCUGCCAAGAGGUGAUACCAGCAUCGAAAGAUGCCCUUGGCAGCACCAACAUGAGGAUCACCCAUGUAAUA [(MT)''-(M)'-(T')-(Theo)-(Ms2)_Design1/22_6] | 185 |
| UGUAUGGACUGAAGGAGCGCCUCAAAAUAGCAUGAGGAACACCCAUGCAAGGCGAAAGCCGGGCAGGUAGGUCGCAGUCCAUACU [ArgBX 3] | 32.2 |
| ACAUGAAGAACAGCGGUGGGCGCGCUCGAUACCAGUACUUUGAUUUACCCUUGGCAGCGACAUGAGGAUCACCCAUGUGAGAUGA [XTheo A #1] | 22.4 |
| GGAGGCCUUAGGGAUACCAGCUAAGUUGAGUACAUGAGGAUCACCCAUGUGUUCCCAGAGAGCCCUUGGCAGCCCUCAUCCGUUC [theeternabot_sameState_MS2_Theo_B_7] | 13.9 |
| ACUAGGCUCGGAAACGAGCCUAGGACAGAAGGAGCGUGGAUUAACACAGGUAGGUCGCUGACAUGAGGAUCACCCAUGUAUUUAU [SSAA #5] | 31.2 |
